{"source": "paper doi:10.1101/2022.02.13.480285", "molecular_target": "SiaM (M-subunit of Photobacterium profundum SiaQM) (Photobacterium profundum)", "assay": "AUC"}
{"substance": "SiaQ (Q-subunit of Photobacterium profundum SiaQM) (natural protein)", "values": [{"measurement": "stoichiometry N (SiaQ per SiaM)", "result": 1}]}
